This is an account of results in publication PMC6410682.

The data set concerns the target 15N-labeled AR DBD (human, UniProt P10275 558-648). Briefly: NMR.

Chain of 15N-labeled AR DBD (P10275 558-648): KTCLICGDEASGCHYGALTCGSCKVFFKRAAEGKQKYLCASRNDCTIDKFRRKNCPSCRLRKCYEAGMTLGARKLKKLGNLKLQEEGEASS

B1: ADR3 DNA duplex (NMR) (dsDNA)
DNA 1: CCAGAACATCAAGAACAC
DNA 2: GTGTTCTTGATGTTCTGG
For the molecule B1, the binding result was “binds”.
